Results: patent US20230176070A1 (published 2023)

Biological target: glutathione S-transferase (UniProt P08515 1-218 = GST)
Test: SPR

glutathione S-transferase, sequence (P08515 whole entry): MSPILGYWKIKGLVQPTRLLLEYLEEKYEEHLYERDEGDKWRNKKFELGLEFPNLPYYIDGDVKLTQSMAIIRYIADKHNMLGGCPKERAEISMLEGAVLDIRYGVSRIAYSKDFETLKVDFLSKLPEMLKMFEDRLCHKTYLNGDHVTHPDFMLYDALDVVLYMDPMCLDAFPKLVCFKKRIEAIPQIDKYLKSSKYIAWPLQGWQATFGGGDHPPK

B1: G47 (VHH)
VHH: QVQLVESGGGLVQAGGSLRLSCAASERIFSNYAMGWFRQAPGKEREFVASIRGSGSQTSYADSVKGRFTISRDGAKDTVDLQMNSLKPEDTAVYYCSAKKYCGSTYNRAEGYDYWGQGTQVTVSS
Kd: 17.6 nM
